Test results taken from patent US20220332836A1, “A METHOD FOR PREVENTING HUMAN VIRUS ASSOCIATED DISORDERS IN PATIENTS” (NOVARTIS AG, priority 2019, published 2022).

Legend:
[1] = tested on: PBMC; assay: Induction of PBMC proliferation; assay type: cell-based
Experimental: (§1) mAb1 binds to human CD40 with high affinity (Kd of 0.3 nM).

[2] = molecular target: T1, CD40 (Homo sapiens, UniProt P25942); assay: Phase 1 single-ascending dose study in healthy subjects and rheumatoid arthritis patients; assay type: in vivo; conditions: for safety and tolerability: interim
T1 construct: CD40 occupancy on peripheral B cells measuring free CD40 and total CD40; endogenous in cells; host or cells: peripheral / whole blood B cells of healthy subjects and rheumatoid arthritis patients (in vivo)
T1 sequence (P25942 21-277): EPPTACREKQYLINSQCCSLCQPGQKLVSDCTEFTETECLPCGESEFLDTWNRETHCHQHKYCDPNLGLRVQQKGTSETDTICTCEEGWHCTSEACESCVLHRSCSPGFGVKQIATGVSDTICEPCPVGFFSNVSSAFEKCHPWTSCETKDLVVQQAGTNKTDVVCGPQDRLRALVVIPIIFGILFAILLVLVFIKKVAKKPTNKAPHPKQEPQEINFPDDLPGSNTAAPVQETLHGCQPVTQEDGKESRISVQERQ
Experimental: The safety, tolerability, PK and PD activity of mAb1 are being assessed in an ongoing, randomized, double-blind, placebo-controlled, single-ascending dose study of mAb1 in healthy subjects and patients with rheumatoid arthritis (RA). A total of 48 subjects have been enrolled: 36 healthy subjects who received single doses of mAb1 up to 3 mg/kg IV or S.C., and 12 patients with RA, 6 of whom received single doses of mAb1 at 10 mg/kg IV. […] An investigation of the 30 mg/kg IV dose is ongoing in RA patients. As this study is still ongoing, all clinical data are preliminary in nature and based on interim analyses conducted up to a dose of 10 mg/kg in RA patients.
In healthy subjects as well as in patients with rheumatoid arthritis, after single IV or SC administration, CFZ533 PK profiles were consistent with target mediated disposition resulting in non-linear PK profiles and more rapid clearance when CD40 receptor occupancy dropped below approximately 90%. […]

[3] = tested on: T cell-dependent antibody responses (TDAR); assay: In vivo T cell-dependent antibody responses and germinal centers
[4] = tested on: kidney allografts; conditions: cited from earlier work
[5] = tested on: CD40; set-up: species or system cynomolgus monkeys; conditions: cynomolgus monkey, in vivo
Experimental: (§2) In a PK/PD study in cynomolgus monkeys, the inflection point (about 10 μg/mL) in the PK profiles was associated with a drop of CD40 saturation, as determined in an independent lymphocyte target saturation assay. As such this inflection point is viewed as a marker for the level of saturation of CD40, and an evidence for target engagement. […] Monkeys were immunized with KLH three times (the first was about 3 weeks prior to dosing, the second was 2 weeks after mAb1 administration, and the third was after complete wash-out of mAb1). […]

[6] = tested on: human leukocytes; assay: rCD154-induced activation of human leukocytes; assay type: cell-based
Experimental: as §1

[7] = tested on: antibody-dependent cellular cytotoxicity or complement-dependent cytotoxicity; assay: ADCC / CDC mediation; assay type: cell-based
Experimental: Currently, CFZ533/Iscalimab is in clinical development for inhibition of transplant organ rejection and therapy for autoimmune diseases.
as §1

[8] = tested on: monocyte-derived dendritic cells (DCs); assay: Cytokine production by monocyte-derived dendritic cells; assay type: cell-based
Experimental: as §1

[9] = molecular target: T1, CD40; assay: CD40 receptor occupancy and CD154-induced CD69 expression in human whole blood cultures; assay type: cell-based; conditions: CD20 positive B cells
Description: In addition, mAb1 can disrupt established germinal centers (GCs) in vivo. The CD40 receptor occupancy and functional activity were simultaneously assessed in vitro using human whole blood cultures. Functional activity was quantified via CD154-induced expression of CD69 (the activation marker) on CD20 positive cells (B cells) and CD40 occupancy was monitored using fluorescently labeled mAb1.

[10] = tested on: whole blood cultures; conditions: whole blood cultures incubated for three days (Ristov 2018); cited from earlier work
[11] = tested on: PBMC incubated with EBV supernatant; assay: EBV regression assay with PBMC; assay type: cell-based, human
Experimental: Buffy coats from six healthy volunteers (18-001 to 18-006) were received from Blutspendezentrum Bern. Peripheral blood mononuclear cells (PBMC) were isolated using LeucoSep tubes following manufacturer's instructions, counted with TC20 and adjusted in cell culture medium (Medium, buffers and reagents). All conditions (see Table 3-2) were run in five replicates in 96-well U-bottom plates and contained 2×10^5 cells/well. PBMC were incubated for 10-15 minutes at 37° C. before adding cell culture medium containing EBV-supernatant and transferrin (see Medium, buffers and reagents). […] Cell pellets were stained and analyzed by flow cytometry (FACS staining procedure).
In FIG. 1, the gating strategy is shown.

[12] = tested on: platelet aggregation
[13] = tested on: non-human primate CD40; assay: Binding to non-human primate CD40
Experimental: as §1

[14] = molecular target: T2, CD40 (Macaca mulatta, UniProt A0ACM8QRX8); assay: KLH / tetanus toxoid immunization in rhesus monkeys; assay type: in vivo
T2 construct: CD40 occupancy by mAb1 at plasma concentrations >40 μg/mL; endogenous in cells; host or cells: rhesus monkeys (in vivo)
T2 sequence (A0ACM8QRX8 21-278): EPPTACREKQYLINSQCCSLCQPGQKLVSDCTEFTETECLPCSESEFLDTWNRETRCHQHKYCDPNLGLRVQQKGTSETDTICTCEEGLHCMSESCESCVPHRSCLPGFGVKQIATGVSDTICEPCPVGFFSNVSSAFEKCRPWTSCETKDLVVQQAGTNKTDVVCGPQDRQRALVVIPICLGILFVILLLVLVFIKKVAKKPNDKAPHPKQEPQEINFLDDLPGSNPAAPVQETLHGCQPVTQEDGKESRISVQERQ
Experimental: as §2

[15] = tested on: Fcγ receptors (including CD16); assay: Fcγ receptor binding
[16] = in vivo
[17] = tested on: EBV-seronegative EBV-B cell/T cell co-cultures; assay: EBV-B cell/T cell co-culture, EBV-seronegative donors; assay type: cell-based, human
[18] = tested on: EBV infections; assay: Clinical kidney transplantation data; assay type: in vivo, human; conditions: CNI-free therapy in kidney transplantation
[19] = single dose of 3 mg/kg (IV and SC)
[20] = 14 days, CsA 0.1, 1 μM, Belatacept 10, 50 μg/mL, CFZ533, hIgG1 10-200 μg/mL, vs medium+EBV
[21] = 10 μg/mL (priming only; priming and recall) and 50 μg/mL (recall only)

## CFZ533: fully human monoclonal Fc-silent, non-depleting anti-CD40 antibody (IgG1/K); heavy chain SEQ ID NO: 9, light chain SEQ ID NO: 10
[1]
  induction of PBMC proliferation: does not induce
[2]; 3 mg/kg IV
  disposition in Chinese subjects versus non-Chinese subjects: generally similar
  duration of target engagement: about 4 weeks
[2]; 3 mg/kg SC
  duration of target engagement: about 4 weeks
[2]; 3 mg/kg SC, healthy subjects
  time of peak plasma concentration post-dose: 3 days
[2]; 10 mg/kg IV, rheumatoid arthritis patients
  duration of full CD40 occupancy: 8 weeks
[2]; 30 mg/kg IV, rheumatoid arthritis patients
  duration of target engagement: 16 weeks
[2]; healthy subjects
  decrease in total CD40 on peripheral B cells: about 50%
[2]; human whole blood, during full CD40 occupancy
  rCD154-induced CD69 expression on B cells: generally suppressed
[2]; human, in vivo
  extent of exposure (AUClast) versus dose: increased more than the increase in dose
  plasma concentration associated with full (>90%) CD40 occupancy on whole blood B cells: 0.3 to 0.4 µg/mL
[2]; patients with rheumatoid arthritis
  decrease in total CD40 on peripheral B cells: not confirmed
[2]; single 10 mg/kg, RA patients
  safety and tolerability: safe and well tolerated
[2]; single IV or SC administration
  CD40 receptor occupancy below which clearance is more rapid: approximately 90%
[2]; single ascending doses 0.03 to 30 mg/kg i.v. and 3 mg/kg s.c.
  safety in Phase 1 study CCFZ533×2101: did not reveal major safety concern
[2]; [19]
  anti-KLH responses to the first KLH immunization: transiently suppressed
  duration of full (>90%) receptor occupancy with anti-KLH suppression: 3-4 weeks
[2]; single doses up to 3 mg/kg, healthy volunteers
  safety and tolerability: safe and well tolerated
[3]
  established germinal centers (GCs): can disrupt
  primary and secondary T cell-dependent antibody responses (TDAR): blocks
[4]; in vivo
  peripheral B cell depletion: no significant peripheral B cell depletion
[4]; non-human primates
  survival of kidney allografts: can prolong survival
[5]
  inflection point in the PK profiles (drop of CD40 saturation): about 10 μg/mL
[6]
  rCD154-induced activation of human leukocytes: inhibits
[7]; listed as CFZ533/Iscalimab
  mediation of ADCC or CDC: incapable of mediating
[7]; listed as mAb1
  mediation of ADCC or CDC: does not
[8]
  induction of cytokine production by monocyte-derived dendritic cells: does not induce
[9]
  CD40 occupancy required for full inhibition of rCD154-induced CD69 expression: Almost complete
[10]
  ADCC: no ADCC
[11]
  EBV control in vitro: does not impair
[11]; [20]
  CD3+ T cell counts: did not had any effect
  CD19+ B cell counts: decrease
[12]
  effect on platelet aggregation: mild inhibitory effects
  induction of platelet aggregation responses: does not induce
[13]
  affinity for human and non-human primate CD40: very similar affinities
[14]; at the time of the second KLH vaccination
  plasma concentration at which CD40 occupancy completely prevented recall antibody responses: > 40 µg/mL
[14]; once mAb1 was cleared
  response to the third KLH: full memory antibody response
[15]
  binding to Fcγ receptors (including CD16): does not bind
[16]
  inflection point of non-linear serum concentration-time profiles: 10 to 20 µg/mL
[17]; [21]
  CD4+ T cell proliferation: slight not significant increase
  CD8+ T cell proliferation: slight not significant increase
[17]; 10-200 μg/mL, all three conditions
  CD4+ T cell proliferation: no effects
[17]; 10-200 μg/mL, priming, recall, priming and recall, 11 days
  CD3+ T cell proliferation: no reducing effect
[17]; all tested concentrations
  CD8+ T cell proliferation: no major effects
[18]
  increased incidence of EBV infections: not observed
